These results are taken from publication PMC5331437, “Synthesis of Mono- and Di-Glucosides of Zearalenone and α-/β-Zearalenol by Recombinant Barley Glucosyltransferase HvUGT14077” (Toxins, 2017).

Data set [1] addresses T1, HvUGT14077 (Hordeum vulgare, UniProt D3WYW3).
T1 sequence (D3WYW3 1-490): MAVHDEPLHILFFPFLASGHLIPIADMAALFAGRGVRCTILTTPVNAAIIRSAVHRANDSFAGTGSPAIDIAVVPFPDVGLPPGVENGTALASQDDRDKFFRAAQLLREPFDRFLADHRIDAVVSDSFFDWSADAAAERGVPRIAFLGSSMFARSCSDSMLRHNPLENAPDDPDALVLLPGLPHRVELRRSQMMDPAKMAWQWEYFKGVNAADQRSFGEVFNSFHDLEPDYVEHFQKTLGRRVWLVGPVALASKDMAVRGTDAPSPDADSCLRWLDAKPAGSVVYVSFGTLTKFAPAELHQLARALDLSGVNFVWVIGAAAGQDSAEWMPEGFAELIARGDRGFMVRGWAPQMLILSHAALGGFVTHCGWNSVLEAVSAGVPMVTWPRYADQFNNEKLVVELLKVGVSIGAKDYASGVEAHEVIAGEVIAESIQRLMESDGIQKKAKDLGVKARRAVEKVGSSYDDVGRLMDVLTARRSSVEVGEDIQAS
Description: LC-MS/MS of glucoside formation. In kind it is biochemical. The arrangement: gene UGT; nHis6-MalE-TEV-HvUGT14077 fusion (tags kept), E. coli BL21 (DE3), IMAC, predicted 97 kDa incl. tags.

For data set [2], the target named is T1, HvUGT14077. As to the kind of experiment: LC-MS/MS, steady state, sum of […]- and 16-glucosides, Haldane fit. Also noted: gene UGT. The note with it: read-out: Kinetic Constant / Km; 10 mM UDP-glucose; 100 mM Tris/Cl pH 7.5, 37 °C; apparent Km, substrate inhibition model.
Substrate in data set [3]: C[C@H]1CCC[C@H](O)CCC/C=C/c2cc(O)cc(O)c2C(=O)O1
As to the kind of experiment: purified protein. The note with it: 10 mM UDP-glucose, 100 mM Tris/Cl pH 7.5, 37 °C, apparent Km, substrate inhibition model.

Substrate in data set [4]: C[C@H]1CCC[C@@H](O)CCC/C=C/c2cc(O)cc(O)c2C(=O)O1
As to the kind of experiment: purified protein. The settings on record: 10 mM UDP-glucose, 100 mM Tris/Cl pH 7.5, 37 °C, apparent Km, substrate inhibition model.

Substrate in data set [5]: O=c1ccn([C@@H]2O[C@H](CO[P@@](=O)(O)O[P@@](=O)(O)O[C@H]3O[C@H](CO)[C@@H](O)[C@H](O)[C@H]3O)[C@@H](O)[C@H]2O)c(=O)[nH]1
As to the kind of experiment: purified protein. The note with it: 25 µM zearalenone, 100 mM Tris/Cl pH 7.5, 37 °C.

As for `O=c1ccn([C@@H]2O[C@H](COP(=O)(O)OP(=O)(O)O)[C@@H](O)[C@H]2O)c(=O)[nH]1` [UDP], in data set [1], the IC50 (in general, the midpoint of a concentration-inhibition curve) was 340 µM.

Regarding `C[C@H]1CCCC(=O)CCC/C=C/c2cc(O)cc(O)c2C(=O)O1` [ZEN, Zearalenone], in data set [2], the Km turned out to be 3 ± 1 µM.

B1: HvUGT14077 (Hordeum vulgare subsp. vulgare) (protein)
chain: MAVHDEPLHILFFPFLASGHLIPIADMAALFAGRGVRCTILTTPVNAAIIRSAVHRANDSFAGTGSPAIDIAVVPFPDVGLPPGVENGTALASQDDRDKFFRAAQLLREPFDRFLADHRIDAVVSDSFFDWSADAAAERGVPRIAFLGSSMFARSCSDSMLRHNPLENAPDDPDALVLLPGLPHRVELRRSQMMDPAKMAWQWEYFKGVNAADQRSFGEVFNSFHDLEPDYVEHFQKTLGRRVWLVGPVALASKDMAVRGTDAPSPDADSCLRWLDAKPAGSVVYVSFGTLTKFAPAELHQLARALDLSGVNFVWVIGAAAGQDSAEWMPEGFAELIARGDRGFMVRGWAPQMLILSHAALGGFVTHCGWNSVLEAVSAGVPMVTWPRYADQFNNEKLVVELLKVGVSIGAKDYASGVEAHEVIAGEVIAESIQRLMESDGIQKKAKDLGVKARRAVEKVGSSYDDVGRLMDVLTARRSSVEVGEDIQAS
On to B1, for which, in data set [3], the Km is recorded as 13 ± 2 µM; the maximum rate (Vmax) – broadly, the rate approached at saturating substrate – is 0.32 µmol/min/mg; the kcat (commonly the maximal rate divided by the concentration of active sites) came to 0.52 ± 0.05 s⁻¹; the kcat/Km (commonly the turnover number divided by the Michaelis constant) was determined as 40000 M⁻¹ s⁻¹. In data set [4], the Km was found to be 27 ± 3 µM, the maximum rate (Vmax) worked out at 1.2 µmol/min/mg, the kcat was determined as 2 ± 0.1 s⁻¹ and the kcat/Km was 74000 M⁻¹ s⁻¹. Further, the Km in data set [5] stood at 78 ± 9 µM.
